The text below walks through data of CN114685670A (SHANGHAI LYOFIE MEDICAL SCIENCE AND TECH LIMITED COMPANY, dated 2022).

The target in assay [1] is T1, human CLDN18.2 (human, UniProt P56856-2 1-261).
T1 construct: whole, on cells; also called hCLDN18.2; Claudin 18.2
T1 sequence (looked up): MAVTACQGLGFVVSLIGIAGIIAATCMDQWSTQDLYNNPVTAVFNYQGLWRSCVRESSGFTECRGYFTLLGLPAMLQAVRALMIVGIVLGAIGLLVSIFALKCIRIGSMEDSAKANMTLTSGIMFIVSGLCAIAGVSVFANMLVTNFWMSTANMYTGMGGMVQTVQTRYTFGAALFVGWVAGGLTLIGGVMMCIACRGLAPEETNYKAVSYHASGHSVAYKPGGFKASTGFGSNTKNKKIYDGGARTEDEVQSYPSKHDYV
The assay can be described thus: flow cytometry on 18.2-K562 cells, 8-point antibody dilution, Anti-Human IgG FITC detection. (In general: Flow cytometry measures light scatter and fluorescence of single cells or particles in a stream.)

Assay [2] addresses T1, human CLDN18.2. Briefly: flow cytometry, hybridoma supernatant on CHO stable cells.

B1: A8抗体 (as tested in Example 6) (antibody, V domains shown)
VH: QVQLQQPGAELVKPGASVKLSCKASGYTFTSYWMHWVRQRPGQGLEWIGMIHPNSGSTNYNGKFKSKATLTVDKSSSTAYMQLSSLTSEDSAVYFCARGGYYGNSLDFWGQGTSLTVSS
VL: DIVMTQSPSSLTVTAREKVTMSCKSSQSLLNSGNQKNYLTWYQQKPGQPPKLLIYWASTRESGVPDRFTGSGSGTDFTLTISSVQAEDLAVYYCQNAYSYPFTFGSGTKLEIK
Take B1: in assay [1], the 抗体亲和力 (affinity from FACS titration, EC50-like) came to 0.675 µg/mL.

B2: C18-16-1H1-1A8 (antibody, V domains shown)
VH: B1 VH
VL: DIVMTQSPSSLTVTAREKVTMSCKSSQSLLNSGNQKNYLTWYQQKPGQPPKLLIYWASTRESGVPDRFTGSGSGTDFTLTISSVQAEDLAVYYCQNAYSYPFTFGSGTKLEIKR
notes: also called A8抗体; C18-16-1H1-1A8重组抗体
Regarding B2, the binding result in assay [2] was “binds”.
